Results taken from patent US20170129961A1 (Amgen, published 2017).

T1: human CD70 (human, UniProt P32970 1-193)
T1 construct: also called hu CD70; CD27L
T1 sequence: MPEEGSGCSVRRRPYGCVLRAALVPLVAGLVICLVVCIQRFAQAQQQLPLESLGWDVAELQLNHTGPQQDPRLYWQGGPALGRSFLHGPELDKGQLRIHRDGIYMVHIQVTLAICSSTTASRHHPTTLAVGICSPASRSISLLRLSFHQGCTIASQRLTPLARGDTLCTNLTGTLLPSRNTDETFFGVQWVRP

T2: full-length mouse CD70 with C-terminal V5 tag (mouse, UniProt O55237 1-195)
T2 construct: On transfected CHO cells; also called murine CD70
T2 sequence: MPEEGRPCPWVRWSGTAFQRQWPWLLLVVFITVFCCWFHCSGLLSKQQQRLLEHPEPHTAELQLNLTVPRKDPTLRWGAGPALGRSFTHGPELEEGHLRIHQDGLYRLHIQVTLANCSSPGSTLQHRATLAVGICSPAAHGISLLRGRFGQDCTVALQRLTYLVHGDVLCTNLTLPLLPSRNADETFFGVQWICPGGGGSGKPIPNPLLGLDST


Experiments:
[1] = target: T1, human CD70; assay: FACS on CHO cells, periplasmic scFv
Description: (§1) All antibodies were diluted in PBS/1.5% FCS. As negative control, cells were incubated with PBS/2% FCS instead of the periplasmic extract. The samples were measured by flow cytometry.

[2] = target: T2, full-length mouse CD70 with C-terminal …; assay: FACS on CHO cells, periplasmic scFv
Description: as §1

Row | Binder | binding result [1] | binding result [2]
1 | CD70-16 (scFv, As m32) scFv: EVQLLESGGGMVQPGGSLRLSCAASGFTFSSYAMSWVRQAPGKGLEWVSAISGSGGRTFYADSVEGRFTISRDNSKNTLYLQMNSLRAEDTAVYYCAKHDYSNYPYFDYWGQGTLVTVSSGGGGSGGGGSGGGGSEIVLTQSPGTLSLSPGERATLSCRASQSIRSSYLAWYQQKPGQAPRLLIYGASSRATGIPDRFSGSGSGTDFTLTISRLEPEDFAVYYCQQYGDLPFTFGPGTKLEIK | binds | no binding
2 | CD70-28 (scFv, As m32) scFv: EVQLLESGGGLVQPGGSLRLSCAASGFTFSTYAMSWVRQAPGKGLEWVSLISGSGGRTYYADSVKGRFTISRDNSKNTLYLQMNSLRAEDTAVYYCAKHDYSNYPYFDYWGQGTLVTVSSGGGGSGGGGSGGGGSEIVLTQSPGTLSLSPGERATLSCRASQSVRSNYLAWYQQKPGQAPRLLIYGASNRATGIPDRFSGSGSGTDFTLTISRLEPEDFAVYSCQQYGISPPTFGGGTKVEIK | binds | no binding
3 | CD70-36 (scFv, As m32) scFv: EVQLLESGGGLVQPGGSLRLSCAASGFTFSSYAMSWVRQAPGQGLEWVSAISGSGGRTYYADSVKGRFTISRDNSKNTLYLQMNSLRAEDTAVYYCAKHDYSNYPYFDYWGQGTLVTVSSGGGGSGGGGSGGGGSEIVLTQSPGTLSLSPGERATLSCRASQSVRGSYLAWYQQKPGQAPRLLIYSASSRATGIPDRFSGSGSGTDFTLTISRLEPEDFAVYYCQQYGDSPFTFGPGTKVEIK | binds | no binding
4 | CD70-21 (scFv, As m32) scFv: EVQLLESGGGMVQPGGSLRLSCAASGFTFSTYAMSWVRQAPGKGLEWVSAISGSGGRTFYADSVEGRFTISRDNSKNTLYLQMNSLRAEDTAVYYCAKHDYSNYPYFDYWGQGTLVTVSSGGGGSGGGGSGGGGSEIVLTQSPGTLSLSPGERATLSCRASQSVRSTYLAWYQQKPGQAPRLLIYGASSRATGIPDRFSGSGSGTDFTLTISRLEPEDFAVYSCQQYGDLPFTFGPGTKLEIK | binds | no binding
5 | CD70-38 (scFv, As m32) scFv: EVQLLESGGGVVQPGRSLRLSCAASGFTFSSYAMSWVRQAPGKGLEWVSAISGSGGRTFYADSVEGRFTISRDNSKNTLYLQMNSLRAEDTAVYYCAKHDYSNYPYFDYWGQGTLVTVSSGGGGSGGGGSGGGGSEIVLTQSPGTLSLSPGERATLSCRASQSIRSNYLAWYQQKPGQAPRLLIYGASSRATGIPDRFSGSGSGTDFTLTISRLEPEDFAVYYCQQYGSSPPSFGQGTKVEIK | binds | no binding
6 | CD70-41 (scFv, As m32) scFv: EVQLLESGGGMVQPGGSLRLSCAASGFTFSSYAMSWVRQAPGKGLEWVSAISGSGGRTFYADSVEGRFTISRDNSKNTLYLQMNSLRAEDTAVYYCTKHDYSNYPYFDYWGQGTLVTVSSGGGGSGGGGSGGGGSEIVLTQSPGTLSLSPGERATLSCRASQSVRSSYLAWYQQKPGQAPRLLIYGASSRATGIPDRFSGSGSGTDFTLTISRLEPEDFAVYYCQQYGDLPFTFGPGTKVDIK | binds | no binding
7 | CD70-39 (scFv, As m32) scFv: EVQLLESGGGVVQPGRSLRLSCAASGFTFSSYAMSWVRQAPGKGLEWVSAISGSGGGTFYADSVEGRFTISRDNSKNTLYLQMNSLRAEDTAVYYCARHDYSNYPYFDYWGLGTLVTVSSGGGGSGGGGSGGGGSEIVLTQSPGTLSLSPGERATLSCRASQSVRSSYLAWYQQKPGQAPRLLIYGASSRATGIPDRFSGSGSGTDFTLTISRLEPEDFAVYSCQQYGDLPFTFGPGTKVEIK | binds | no binding
8 | CD70-19 (scFv, As m32) scFv: EVQLLESGGGLVQPGGSLRLSCAASGFTFSTYAMSWVRQAPGKGLEWVSAISGSGGSTFYADSVKGRFTISRDNSKNTLSLQMNSLRAEDTAVYYCAKHDYSNYPYFDYWGQGTLVTVSSGGGGSGGGGSGGGGSEIVLTQSPGTLSLSPGERATLSCRASQSVRSSYLAWYQQKPGQAPRLLIYGASSRATGIPDRFSGSGSGTDFTLTISRLEPEDFAVYYCQQYGDLPFTFGPGTKLEIK | binds | no binding
9 | CD70-18 (scFv, As m32) scFv: EVQLLESGGGLVQPGGSLRLSCAASGFTFSSYAMSWVRQAPGKGLEWVSLISGSGGRTHYADSVKGRFTISRDNSKNTLYLQMNSLRAEDTAVYYCAKHDYSNYPYFDYWGQGTLVTVSSGGGGSGGGGSGGGGSEIVLTQSPGTLSLSPGERATLSCRASQSVRSTYLAWYQQKPGQAPRLLIYDASSRATGIPDRFSGSGSGTDFTLTISRLEPEDFAVYFCQQYGSSPPTFGGGTKLEIK | binds | no binding
10 | CD70-24 (scFv, As m32) scFv: EVQLLESGGGLAQPGGSLRLSCAASGFTFSSYAMSWVRQAPGKGLEWVSAISGSGGSTFYADSVKGRFTISRDNSKNTLYLQMNSLRAEDTAVYFCAKHDYSNYPYFDYWGQGTLVTVSSGGGGSGGGGSGGGGSEIVLTQSPGTLSLSPGERATLSCRASQSVRSSYLAWYQQKPGQAPRLLIYGASSRATGIPDRFSGSGSGTDFTLTISRLEPEDFAVYYCQQYGDLPFTFGPGTKVEIK | binds | no binding
11 | CD70-40 (scFv, As m32) scFv: EVQLLESGGGMVQPGGSLRLSCAASGFTFSSYAMSWVRQAPGKGLEWVSAISGSGGRTFYADSVEGRFTISRDNSKNTLYLQMNSLRAEDTAVYYCAKHDYSNYPYFDYWGQGTLVTVSSGGGGSGGGGSGGGGSEIVLTQSPGTLSLSPGERATLSCRASQSIRSSYLAWYQQKPGQAPRLLIYGASSRATGIPDRFSGSGSGTDFTLTISRLEPEDFAVYYCQQYGDLPFTFGPGTKVDIK | binds | no binding

Now from value to binder:

Row | binding result [1] | binding result [2] | Binder
12 | binds | no binding | CD70-32 (scFv, As m32) scFv: EVQLLESGGGMVQPGGSLRLSCAASGFTFSSYAMSWVRQAPGKGLEWVSAISGSGGRTFYADSVEGRFTISRDNSKNTLYLQMNSLRAEDTAVYYCTKHDYSNYPYFDYWGQGTLVTVSSGGGGSGGGGSGGGGSEIVLTQSPGTLSLSPGERATLSCRASQGVRSDYLAWYQQKPGQAPRLLIYGASSRATGIPDRFSGSGSGTDFTLTISRLEPEDFAVYHCQQYGSTPPTFGGGTKVEIK
13 | binds | no binding | CD70-23 (scFv, As m32) scFv: EVQLLESGGGLVQPGGSLRLSCAASGFTFSVYAMSWVRQAPGKGLEWVSTISDSGGSTFYADSVKGRFTISRDNSKNTLYLQMNRLRAEDTAVYYCARHDYSNYAYFDYWGQGTLVTVSSGGGGSGGGGSGGGGSEIVLTQSPGTLSLSPGERATLSCRASQSVRSSYLAWYQQKPGQAPRLLIYGASSRATGIPDRFSGSGSGTDFTLTISRLEPEDFAVYYCQQYGDLPFTFGPGTKVEIK
14 | binds | no binding | CD70-43 (scFv, As m32) scFv: EVQLLESGGGVVQPGRSLRLSCAASGFTFSSYAMSWVRQAPGKGLEWVSAISGSGGRTFYADSVEGRFTISRDNSKNTLYLQMNSLRAEDTAVYYCAKHDYSNYPYFDYWGQGTLVTVSSGGGGSGGGGSGGGGSEIVLTQSPGTLSLSPGERATLSCRASQSVRSNYLAWYQQKPGQAPRLLIYGASSRATGIPDRFSGSGSGTDFTLTINRLEPEDFAVYYCQQYGSSPPTFGGGTKVDIK
15 | binds | no binding | CD70-42 (scFv, As m32) scFv: EVQLLESGGGLVQPGGSLRLSCAASGFTFSTYAMSWVRQAPGKGLEWVSLISGSGGRTYYADSVKGRFTISRDNSKNTLYLQMNSLRAEDTAVYYCAKHDYSNYPYFDYWGQGTLVTVSSGGGGSGGGGSGGGGSEIVLTQSPGTLSLSPGERATLSCRASQGVRSSYLAWYQQKPGQAPRLLIYGASSRATGIPDRFSGSGSGTDFTLTINRLEPEDFAVYYCQQYGSSPPTFGGGTKVDIK
16 | binds | no binding | CD70-25 (scFv, As m32) scFv: EVQLLESGGGMVQPGGSLRLSCAASGFTFSSYAMSWVRQAPGKGLEWVSAISGSGGRTFYADSVEGRFTISRDNSKNTLYLQMNSLRAEDTAVYYCAKHDYSNYPYFDYWGQGTLVTVSSGGGGSGGGGSGGGGSEIVLTQSPGTLSLSPGERATLSCRASQSVRSNYLAWYQQKPGQAPRLLIYGASSRATGIPDRFSGSGSGTDFTLTISRLEPEDFAVYYCQQYGDLPFTFGPGTKVEIK
17 | binds | no binding | CD70-27 (scFv, As m32) scFv: EVQLLESGGGLVQPGGSLRLSCAASGFTFSTYAMSWVRQAPGKGLEWVSAISGSGGGTFYADSVKGRFTISRDNSKNTLYLQMNSLRAEDTAVYYCAKHDYSNYPYFDYWGQGTLVTVSSGGGGSGGGGSGGGGSEIVLTQSPGTLSLSPGERATLSCRASQSIRSNYLAWYQQKPGQAPRLLIYGASSRATGIPDRFSGSGSGTDFTLTISRLEPEDFAVYYCQQYGSSPFTFGPGTKVEIK
18 | binds | no binding | CD70-54 (scFv, As m32) scFv: EVQLLESGGGLVQPGGSLRLSCAASGFTFSIYAMSWVRQAPGKGLEWVSAIGDSGGSTFYADSVKGRFTISRDNSKNTLYLQMNSLRAEDTAVYYCAKHDYSNYPYFDYWGQGTLVTVSSGGGGSGGGGSGGGGSEIVLTQSPGTLSLSPGERATLSCRASQSVRSSYVAWYQQKPGQAPRLLIYGASSRATGIPDRFSGSGSGTDFTLTISRLEPEDFAVYYCQQYGDLPFTFGPGTRLEIK
